The values below come from patent US20240317872A1 (WUXI BIOLOGICS IRELAND, published 2024).

The target of the experiment is T1, Human PD-L1 (human, UniProt Q9NZQ7 19-290).
T1 construct: whole, on cells; also called target-A
Kind of experiment: flow cytometry on CHO-K1 cells expressing human PD-L1. As for the experimental part:
Human PD-L1-expressing cells W315-CHOK1.hPro1.C11 (×10^5 cells/well) and 4-1BB-expressing cells WBP342-CHO-K1.hPro1.C1 were incubated with various concentrations of testing antibodies at 4° C. for 1 hour. […] The cells were then washed and resuspended in DPBS with 1% BSA. MFI of the cells was measured by a flow cytometer and analyzed by FlowJo.
As shown in FIG. 7 and Table 7, compared to the reference molecule, the T8311 variants kept the target binding ability very well.
(In general: Flow cytometry measures light scatter and fluorescence of single cells or particles in a stream.)

T1 sequence (Q9NZQ7 19-290): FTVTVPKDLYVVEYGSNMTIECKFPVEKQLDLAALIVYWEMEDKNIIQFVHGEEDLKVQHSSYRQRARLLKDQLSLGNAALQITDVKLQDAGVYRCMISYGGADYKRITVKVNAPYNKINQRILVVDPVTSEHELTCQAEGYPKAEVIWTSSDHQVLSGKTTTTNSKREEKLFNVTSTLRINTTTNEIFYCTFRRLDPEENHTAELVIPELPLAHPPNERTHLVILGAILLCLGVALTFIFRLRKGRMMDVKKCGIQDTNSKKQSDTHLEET

B1: T8311-U14T2.G25R-61.uIgG1 (bispecific antibody)
heavy: not shown
light 1: SYELTQPPSVSVSPGQTASITCSGSELPKRYAYWYQQKPGQSIVRVIYKDSERPSGISERFSGSSSGNTATLTISGTQAMDEADYYCSSTYGDRKLPIFGGGTKLTVLGQPKAAPSVTLFPPSSEELQANKATLVCLISDFYPGAVTVAWKADSSPVKAGVETTTPSKQSNNKYAASSYLSLTPEQWKSHKSYSCQVTHEGSTVEKTVAPTECS
light 2: SYVLTQPPSVSVAPGQTARMTCGGDNIGIKIVHWYQQKAGQAPVLVVYDDNDRPSGIPDRFSGSNSGNTATLTISRVAAGDEADYYCQVWDRRSDHVVFGGGTKLTVLPDIQNPDPAVYQLRDSKSSDKSVCLFTDFDSQTQVSQSKDSDVYITDKCVLDMRSMDFKSNSAVAWSQKSDFACANAFQNSIIPEDTFFCS
notes: also called T8311-61; Design-61
The EC50 is the concentration giving half of the maximal effect. Read a low EC50 as greater potency. Turning to B1, the midpoint of the response, the EC50, lay at 0.179 nM and the “Top (MFI)” value worked out at 7880 MFI.

B2: T8311-U14T2.G25R-54.uIgG1 (bispecific antibody)
heavy: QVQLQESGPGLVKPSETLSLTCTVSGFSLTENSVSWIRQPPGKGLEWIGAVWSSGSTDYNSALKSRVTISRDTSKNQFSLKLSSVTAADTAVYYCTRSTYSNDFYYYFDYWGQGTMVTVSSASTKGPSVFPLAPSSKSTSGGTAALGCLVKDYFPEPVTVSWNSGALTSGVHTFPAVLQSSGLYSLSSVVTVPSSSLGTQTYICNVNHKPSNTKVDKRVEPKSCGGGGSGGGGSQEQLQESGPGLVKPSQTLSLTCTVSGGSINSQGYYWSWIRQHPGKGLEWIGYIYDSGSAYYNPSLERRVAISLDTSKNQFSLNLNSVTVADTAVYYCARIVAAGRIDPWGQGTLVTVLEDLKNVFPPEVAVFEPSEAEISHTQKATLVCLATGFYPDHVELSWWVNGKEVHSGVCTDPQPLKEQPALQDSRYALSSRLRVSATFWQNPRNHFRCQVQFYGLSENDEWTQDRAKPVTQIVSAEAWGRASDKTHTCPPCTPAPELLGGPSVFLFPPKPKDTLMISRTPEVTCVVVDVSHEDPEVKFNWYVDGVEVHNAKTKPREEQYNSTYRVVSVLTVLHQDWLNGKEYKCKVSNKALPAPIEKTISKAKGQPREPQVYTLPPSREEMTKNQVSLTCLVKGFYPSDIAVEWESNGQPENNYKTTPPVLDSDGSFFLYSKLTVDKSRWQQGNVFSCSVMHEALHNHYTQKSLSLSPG
light 1: SYELTQPPSVSVSPGQTASITCSGSELPKRYAYWYQQKPGQSIVRVIYKDSERPSGISERFSGSSSGNTATLTISGTQAMDEADYYCSSTYGDRKLPIFGGGTKLTVLGQPKAAPSVTLFPPSSEELQANKATLVCLISDFYPGAVTVAWKADSSPVKAGVETTTPSKQSNNKYAASSYLSLTPEQWKSHKSYSCQVTHEGSTVEKTVAPTECS
light 2: SYVLTQPPSVSVAPGQTARMTCGGDNIGIKIVHWYQQKAGQAPVLVVYDDNDRPSGIPDRFSGSNSGNTATLTISRVAAGDEADYYCQVWDRRSDHVVFGGGTKLTVLPDIQNPDCAVYQLRDSKSSDKSVCLFTDFDSQTQVSQSKDSDVYITDKCVLDMRSMDFKSNSAVAWSQKSDFACANAFQNSIICEDTFFPS
notes: also called T8311-54
For B2, the response was half-maximal at 0.23 nM (EC50) and the “Top (MFI)” value came to 8120 MFI.
